# B1: FAP promoter WT -225~-205 (dsDNA)
# DNA 1: CAAGAACGCCCCCAAAATCT
# DNA 2: AGATTTTGGGGGCGTTCTTG
# Target: EGR1 (UniProt P18146 1-543)
# Assay: EMSA
# Sequence of EGR1 (P18146 whole entry): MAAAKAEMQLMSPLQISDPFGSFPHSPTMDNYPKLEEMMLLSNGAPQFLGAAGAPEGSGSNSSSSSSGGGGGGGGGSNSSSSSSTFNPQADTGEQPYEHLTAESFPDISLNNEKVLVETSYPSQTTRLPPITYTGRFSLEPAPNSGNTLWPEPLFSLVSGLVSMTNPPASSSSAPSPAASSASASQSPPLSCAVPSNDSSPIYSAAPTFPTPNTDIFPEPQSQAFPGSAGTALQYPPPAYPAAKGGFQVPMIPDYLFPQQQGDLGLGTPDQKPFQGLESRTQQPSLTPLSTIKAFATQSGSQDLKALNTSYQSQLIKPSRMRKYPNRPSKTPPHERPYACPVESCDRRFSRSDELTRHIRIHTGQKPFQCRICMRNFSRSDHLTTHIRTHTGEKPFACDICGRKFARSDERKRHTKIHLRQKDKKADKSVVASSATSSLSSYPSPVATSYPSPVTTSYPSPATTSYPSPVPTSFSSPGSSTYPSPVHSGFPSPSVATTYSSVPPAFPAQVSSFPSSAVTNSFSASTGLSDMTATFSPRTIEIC
binder,measurement,value
B1,binding result,binds

# Source: paper PMC2880831
